Reference: PMC6555833, “APC/C^CDH1 synchronizes ribose-5-phosphate levels and DNA synthesis to cell cycle progression” (Nature Communications, 2019)

T1: purified recombinant TKT (human, UniProt P29401 1-623)
T1 chain: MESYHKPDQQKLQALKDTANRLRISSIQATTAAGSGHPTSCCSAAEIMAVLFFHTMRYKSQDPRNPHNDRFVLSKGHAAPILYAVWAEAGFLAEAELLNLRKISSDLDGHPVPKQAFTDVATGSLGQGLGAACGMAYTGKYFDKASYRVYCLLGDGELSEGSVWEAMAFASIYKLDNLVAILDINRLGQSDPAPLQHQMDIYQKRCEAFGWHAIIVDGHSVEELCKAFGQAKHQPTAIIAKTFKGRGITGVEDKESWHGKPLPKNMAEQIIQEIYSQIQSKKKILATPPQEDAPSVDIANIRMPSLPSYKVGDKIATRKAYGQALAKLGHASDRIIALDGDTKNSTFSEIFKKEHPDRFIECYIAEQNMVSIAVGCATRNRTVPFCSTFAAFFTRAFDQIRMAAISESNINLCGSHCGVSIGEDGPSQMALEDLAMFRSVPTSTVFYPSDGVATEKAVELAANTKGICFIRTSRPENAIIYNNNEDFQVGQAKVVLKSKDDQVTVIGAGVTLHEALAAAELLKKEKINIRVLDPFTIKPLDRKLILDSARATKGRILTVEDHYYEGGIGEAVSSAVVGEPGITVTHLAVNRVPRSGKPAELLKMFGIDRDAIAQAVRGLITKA

B1: purified recombinant TKTL1 (natural protein, human, UniProt P51854 1-596, looked up)
chain: MADAEARAEFPEEARPDRGTLQVLQDMASRLRIHSIRATCSTSSGHPTSCSSSSEIMSVLFFYIMRYKQSDPENPDNDRFVLAKRLSFVDVATGWLGQGLGVACGMAYTGKYFDRASYRVFCLMSDGESSEGSVWEAMAFASYYSLDNLVAIFDVNRLGHSGALPAEHCINIYQRRCEAFGWNTYVVDGRDVEALCQVFWQASQVKHKPTAVVAKTFKGRGTPSIEDAESWHAKPMPRERADAIIKLIESQIQTSRNLDPQPPIEDSPEVNITDVRMTSPPDYRVGDKIATRKACGLALAKLGYANNRVVVLDGDTRYSTFSEIFNKEYPERFIECFMAEQNMVSVALGCASRGRTIAFASTFAAFLTRAFDHIRIGGLAESNINIIGSHCGVSVGDDGASQMALEDIAMFRTIPKCTIFYPTDAVSTEHAVALAANAKGMCFIRTTRPETMVIYTPQERFEIGQAKVLRHCVSDKVTVIGAGITVYEALAAADELSKQDIFIRVIDLFTIKPLDVATIVSSAKATEGRIITVEDHYPQGGIGEAVCAAVSMDPDIQVHSLAVSGVPQSGKSEELLDMYGISARHIIVAVKCMLLN
notes: wild-type transketolase-like protein 1 (TKTL1), human; in vector pSJ3; also called TKTL1 monomer; source: E. coli BL21 (DE3)pLysS, purified (nickel column)
B2: purified recombinant TKT (natural protein, human, UniProt P29401 1-623, looked up)
chain: T1 chain
notes: wild-type transketolase (TKT), human; in vector pSJ3; also called TKT homodimer; TKT-TKT; source: E. coli BL21 (DE3)pLysS, purified (nickel column)

Key:
purified recombinant TKT [1] = biological target: T1, purified recombinant TKT; test: SPR
purified recombinant TKT [2] = biological target: B2; test: SPR; Biacore T200; TKT amine-coupled to a CM5 chip in 10 mM sodium acetate pH 5.5; TKTL1 in a series of concentrations starting at 65.9 nM; PBS buffer; settings: both partners purified
[3] = biological target: the molecule itself; test: SPR; Biacore T200; TKT immobilised on a CM5 chip; constant of the TKT-TKT homodimer; the analyte series is not described
SPR = biological target: the molecule itself; test: SPR
[4] = biological target: the molecule itself; test: native gel or EMSA; native gel electrophoresis of TKT, TKTL1-TKT and TKTL1

| Binder | koff (purified recombinant TKT [1]) [s⁻¹] | Kd (purified recombinant TKT [2]) [nM] | Kd [3] [nM] | koff (SPR) [s⁻¹] | stoichiometry N [4] |
| --- | --- | --- | --- | --- | --- |
| B1 | 0.0044 | 146 |  |  |  |
| B2 |  |  | 118 | 0.00777 | 2 |
